Source: patent US20140219992A1

Tests used:
[1] = biological target: serum-derived protein (Zucker rat); assay: solid phase capture ELISA of Zucker rat skin perfusate, 30 minutes after perfusion, 10 mM Ca^2+
[2] = biological target: serum-derived protein (Zucker rat); assay: solid phase capture ELISA of Zucker rat skin perfusate, 60 minutes after perfusion, 10 mM Ca^2+
[3] = biological target: serum-derived protein (Zucker rat); assay: solid phase capture ELISA of Zucker rat skin perfusate, 90 minutes after perfusion, 10 mM Ca^2+
[4] = biological target: serum-derived protein (Zucker rat); assay: solid phase capture ELISA of Zucker rat skin perfusate, 2 minutes after perfusion, 1 mM Ca^2+
[5] = biological target: serum-derived protein (Zucker rat); assay: solid phase capture ELISA of Zucker rat skin perfusate, 30 minutes after perfusion, 1 mM Ca^2+
[6] = biological target: serum-derived protein (Zucker rat); assay: solid phase capture ELISA of Zucker rat skin perfusate, 2 minutes after perfusion, 10 mM Ca^2+
[7] = biological target: serum-derived protein (Zucker rat); assay: solid phase capture ELISA of Zucker rat skin perfusate, 90 minutes after perfusion, 1 mM Ca^2+
[8] = biological target: serum-derived protein (Zucker rat); assay: solid phase capture ELISA of Zucker rat skin perfusate, 30 minutes after start of perfusion, 1 mM Ca^2+

wild-type human matrix metalloprotease 1 (hMMP-1), purified and trypsin-activated, sequence (P03956 100-469): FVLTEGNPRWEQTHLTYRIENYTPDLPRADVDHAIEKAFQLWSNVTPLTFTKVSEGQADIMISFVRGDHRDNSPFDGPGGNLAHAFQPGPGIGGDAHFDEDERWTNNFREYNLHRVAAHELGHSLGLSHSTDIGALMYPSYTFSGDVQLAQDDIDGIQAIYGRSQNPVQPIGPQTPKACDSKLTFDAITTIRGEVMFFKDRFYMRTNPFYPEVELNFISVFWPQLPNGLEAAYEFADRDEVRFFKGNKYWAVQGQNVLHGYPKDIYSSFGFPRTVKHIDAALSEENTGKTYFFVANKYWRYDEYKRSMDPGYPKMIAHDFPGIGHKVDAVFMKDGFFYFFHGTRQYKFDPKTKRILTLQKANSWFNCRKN

percent of uncomplexed protein (of the starting concentration) [1] [%]	percent of uncomplexed protein (of the starting concentration) [2] [%]	percent of uncomplexed protein (of the starting concentration) [3] [%]	percent of uncomplexed protein (of the starting concentration) [4] [%]	uncomplexed protein as a fraction of the starting concentration (fraction of the starting concentration) [5]	percent of uncomplexed protein (of the starting concentration) [6] [%]	uncomplexed protein as a fraction of the starting concentration (fraction of the starting concentration) [7]	uncomplexed protein as a fraction of the starting concentration (fraction of the starting concentration) [8]	Substance
50	30	13	45	< 0.1	90	–	–	MMP-1 mutant GVSK (G159V/S208K), purified and trypsin-activated (from UniProt P03956 100-469) (enzyme)
–	–	–	90	–	–	0.33	0.5	wild-type human matrix metalloprotease 1 (hMMP-1), purified and trypsin-activated (from UniProt P03956 100-469) (enzyme)
